In the supplement of paper PMC10567573:

B1: MAGEA6 (parent)
chain: KISGGPRISYPLLHEWALREGEE

Variants of: B1
Assay: protein stability index of a GFP-peptide fusion (GPS, HEK-293T) (PSI 1-6); higher = more stable
Settings: c terminus: native
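Note: lentivirally expressed fusions sorted by FACS into six bins by GFP to DsRed ratio, PSI derived from sequencing read proportions per bin multiplied by bin number.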

Variant | protein stability index
KISGGPRISYPLLHEWALGEGEE [R19G] | 2.67
KISGGPRISYPLLHEWALAEGEE [R19A] | 2.07
KISGGPRISYPLLHEWALNEGEE [R19N] | 1.43
KISGGPRISYPLLHEWALTEGEE [R19T] | 3.74
KISGGPRISYPLLHEWALPEGEE [R19P] | 2.18
KISGGPRISYPLLHEWALFEGEE [R19F] | 2.64
KISGGPRISYPLLHEWALHEGEE [R19H] | 3.42
KISGGPRISYPLLHEWALCEGEE [R19C] | 2.87
KISGGPRISYPLLHEWALLEGEE [R19L] | 3.32
KISGGPRISYPLLPEWALREGEE [H14P] | 3.11
KISGGPRISYPLLVEWALREGEE [H14V] | 3.6
KISGGPRISYPLLSEWALREGEE [H14S] | 3.4
KISGGPRISYPLLHEWATREGEE [L18T] | 2.04
KISGGPRISYPLLHEWASREGEE [L18S] | 2.31
KISGGPRISYPLLHEWAKREGEE [L18K] | 2.72
KISGGPRISYPLLHEWAIREGEE [L18I] | 2.98
KISGGPRISYPLLHEWAWREGEE [L18W] | 2.78
KISGGPRISYPLLHEWANREGEE [L18N] | 2.16
KISGGPRISYPLLHEWAQREGEE [L18Q] | 1.63
KISGGPRISYPLLHEWAEREGEE [L18E] | 3.11
KISGGPRISYPLLHEWNLREGEE [A17N] | 3.69
KISGGPRISYPLLHEWELREGEE [A17E] | 3.55
KISGGPRISYPLLHEWCLREGEE [A17C] | 3.28
KISGGPRISYPLLHEWDLREGEE [A17D] | 1.28
KISGGPRISYPLLHEWPLREGEE [A17P] | 1.02

Variant | protein stability index
KISGGPRISYPLLHECALREGEE [W16C] | 2.94
KISGGPRISYPLLHENALREGEE [W16N] | 2.54
KISGGPRISYPLLHEHALREGEE [W16H] | 2.26
KISGGPRISYPLLHETALREGEE [W16T] | 1.89
KISGGPRISYPLLHEPALREGEE [W16P] | 2.49
KISGGPRISYPLLHEFALREGEE [W16F] | 2.74
KISGGPRISYPLLHESALREGEE [W16S] | 2.33
KISGGPRISYPLLHEYALREGEE [W16Y] | 4.84
KISGGPRISYPLLHELALREGEE [W16L] | 4.59
KISGGPRISYPLLHNWALREGEE [E15N] | 2.31
KISGGPRISYPLLHKWALREGEE [E15K] | 3.16
KISGGPRISYPLLHGWALREGEE [E15G] | 3.53
KISGGPRISYPLLHIWALREGEE [E15I] | 2.14
KISGGPRISYPFLHEWALREGEE [L12F] | 3.78
KISGGPRISYPALHEWALREGEE [L12A] | 4.05
KISGGPRISYPGLHEWALREGEE [L12G] | 5.59
KISGGPRISYPTLHEWALREGEE [L12T] | 2.23
KISGGPRISYPHLHEWALREGEE [L12H] | 2.3
KISGGPRISYPLLHEWALREYEE [G21Y] | 2.4
KISGGPRISYPLLHEWALRECEE [G21C] | 3.26
KISGGPRISYPLLHEWALREKEE [G21K] | 3.31
KISGGPRISYPLLHEWALREDEE [G21D] | 4.14
KISGGPRISYPLLHEWALREGQE [E22Q] | 3.01
KISGGPRISYPLLHEWALREGME [E22M] | 2.19
KISGGPRISYPLLHEWALREGYE [E22Y] | 2.29

Variant | protein stability index
KISGGPRISYPLLHEWALREGLE [E22L] | 2.44
KISGGPRISYPLLHEWALREGIE [E22I] | 2.37
KISGGPRISYPLLHEWALREGAE [E22A] | 2.4
KISGGPRISYPLLHEWALREGTE [E22T] | 2.36
KISGGPRISYPLLHEWALREGPE [E22P] | 1.85
KISGGPRISYPLLHEWALREGDE [E22D] | 3.35
KISGGPRISYPLLHEWALREGHE [E22H] | 2.49
KISGGPRISYPLLHEWALREGCE [E22C] | 1.88
KISGGPRISYPLLHEWALREGFE [E22F] | 2.75
KISGGPRISYPLLHEWALREGWE [E22W] | 1.87
KISGGPRISYPLLHEWALREGNE [E22N] | 2.53
KISGGPRISYPLLHEWALREGVE [E22V] | 1.06
KISGGPRISYPLLHEWALREGGE [E22G] | 2.18
KISGGPRISYPLLHEWALREGRE [E22R] | 3.04
KISGGPRISYPLLHEWALREGSE [E22S] | 2.12
KISGGPRISYPLQHEWALREGEE [L13Q] | 2.27
KISGGPRISYPLMHEWALREGEE [L13M] | 1.77
KISGGPRISYPLYHEWALREGEE [L13Y] | 1.19
KISGGPRISYPLWHEWALREGEE [L13W] | 3.38
KISGGPRISYPLNHEWALREGEE [L13N] | 2.95
KISGGPRISYPLLHEWALREGEG [E23G] | 2.41
KISGGPRISYPLLHEWALREGED [E23D] | 3.38
KISGGPRISYPLLHEWALREGEI [E23I] | 1.74
KISGGPRISYPLLHEWALREGEP [E23P] | 1.89
KISGGPRISYPLLHEWALREGET [E23T] | 2.25

Variant | protein stability index
KISGGPRISYPLLHEWALREGEL [E23L] | 2.27
KISGGPRISYPLLHEWALREGEN [E23N] | 2.73
KISGGPRISYPLLHEWALREGER [E23R] | 1.88
KISGGPRISYPLLHEWALREGEH [E23H] | 2.73
KISGGPRISYPLLHEWALREGEK [E23K] | 2.88
KISGGPRISYPLLHEWALREGEQ [E23Q] | 2.48
KISGGPRISYPLLHEWALREGEA [E23A] | 1.23
KISGGPRISYPLLHEWALREGEM [E23M] | 2.17
KISGGPRISYPLLHEWALREGEF [E23F] | 2.43
KISGGPRISYPLLHEWALREGEW [E23W] | 1.94
KISGGPRISYPLLHEWALREGEY [E23Y] | 2.56
KISGGPRISYPLLHEWALREGEC [E23C] | 1.64
KISGGPRISYPLLHEWALRTGEE [E20T] | 2.92
KISGGPRISYPLLHEWALRKGEE [E20K] | 3.74
KISGGPRISYPLLHEWALRNGEE [E20N] | 2.34
KISGGPRISYPLLHEWALRPGEE [E20P] | 2.36
KISGGPRISYPLLHEWALRLGEE [E20L] | 3.74
KISGGPRISYPLLHEWALRSGEE [E20S] | 4.57
KISGGPRISYPLLHEWALRVGEE [E20V] | 3.06
KISGGPRISYPLLHEWALRWGEE [E20W] | 2.32
KISGGPRISYVLLHEWALREGEE [P11V] | 2.1
KISGGPRISYSLLHEWALREGEE [P11S] | 2.66
